Experimental data published in patent publication US20180022822A1, “NOVEL ANTI-FIBROBLAST ACTIVATION PROTEIN (FAP) BINDING AGENTS AND USES THEREOF” (Mabimmune Diagnostics AG, priority 2016, published 2018).

Tests used:
[1] = test system: MOPC315.BM multiple myeloma cells and tumor stroma; experiment: immunofluorescence on murine multiple myeloma bone tissue; design: species or system mouse; details: Cy5 labelled antibody, bone sections
Protocol: BALB/c mice were injected with 2×10^6 of the murine multiple myeloma cell line […] intravenously. BALB/c mice were injected with a vehicle-only control. Bone tissue was harvested and fixed in 4% PFA, decalcified in 10% EDTA (pH 7.4), embedded in paraffin before being sectioned (4 μm) and rehydrated. Then, CD138 mAb (Clone 281-2, BD Pharmingen) and Cy5 labelled NI-206.82C2 were used to identify MOPC315.BM.Luc cell infiltration, and NI-206.82C2 binding to these cells and surrounding stromal cells in the tissue sections. Stained tissue sections were then imaged using a fluorescent microscope (FIG. 13).

[2] = test system: arterial occlusion (thrombosis); experiment: carotid artery photochemical injury-induced thrombosis model; type: in vivo, mouse
Protocol: The carotid artery photochemical injury-induced thrombosis model begins with anesthesia by intraperitoneal injection of sodium pentobarbital (87 mg/kg body weight). After slight tail warming (using warm water) rose bengal (10 mg/mL in PBS) is injected into the tail vein in a volume of 0.12 mL at a concentration of 50 mg/kg. Mice will then be secured in a supine position (with the head pointing towards the operator) and placed on a heating pad (rectal temperature will be monitored) under a dissecting microscope. Following a (2.5-3 cm) midline cervical incision and a small incision of the larynx to provide a tracheostoma, by blunt preparation the right common carotid artery is exposed and cleared of connective tissue. A surgical stitch is employed to fix the sternocleidomastoid muscle aside to the right and increase access area to the right carotid artery. Care must be taken to avoid excessive vessel manipulation during procedures. Curved-tip tweezers will be employed to slide under the vessel (from the left side) and gently lift it so as to place the probe under and around it. The probe will be placed as proximal as the access area allows it to be and its connection wire should then be placed on a micromanipulator to fine-adjust its position. (The probe should be perfectly aligned with the vessel so as not to cause any resistance to flow). Little surgical ultrasonic gel should be applied on top of the probe to increase signal quality. Within 6 minutes of Rose Bengal injection, a laser beam will be aimed at the carotid artery and kept at fixed distance of 6 cm for 60 minutes. Flow will be measured during these 60 minutes and for further 60 minutes (max time elapse 120 minutes) or until occlusion occurs. Occlusion is considered as a constant (≧1 min) flow below 0.1 ml/min. Mice are euthanized by an overdose of pentobarbital immediately (25 mg) after the occlusion analysis is completed.
Mice will be placed on a heating pad, to avoid a drop of body temperature. Heart rate (probe measuring the blood flow will also measure the heart rate) will be monitored during the surgery. Anethesia depth will be checked before starting the surgery and during the experiment by pedal withdrawal reflex (animals hind limb will be extended and the interdigital webbing of the foot will firmly pinched by the use of an atraumatic forceps; if there is no withdrawal reaction to the toe pinch, animals will be judged deep enough).
The chosen dose of anesthesia sodium pentobarbital (87 mg/kg body weight) is sufficient to keep the animal in deep anesthesia for the whole duration of the experiment. No second dosing is necessary. […]

[3] = test system: human invasive ductal carcinoma and invasive lobular carcinoma sections; experiment: confocal immunofluorescence on human carcinoma cryosections; details: Cy3 labelled antibody
Protocol: NI-206.82C2 was labelled with Cyanine 3 for fluorescent imaging (Cy3 conjugation kit: Innova Biosciences, 340-0030) and antibody labelling was validated using a spectophotometer. Cryosections from human invasive ductal carcinoma tissues (FIG. 9, A) and invasive lobular carcinoma (FIG. 9, B) were fixed for 5 minutes in ice cold acetone and allowed to dry for 10 minutes before washing in PBS. The sections were then incubated for 1 hr at room temperature in 5% BSA in PBS. The tissue sections were then incubated with Cyanine 3 prelabelled antibodies overnight at 4° C., and then washed three times in PBS before incubation with DAPI at 0.5 μg/mL. Sections were then washed three additional times in PBS and mounted in Lisbeth's mounting medium before imaging on a SP8 confocal microscope (Leica Microsystems).

recombinant human FAP = molecular target: T1, recombinant human FAP (Homo sapiens, UniProt Q12884); experiment: mechanism of inhibition of rhuFAP-mediated PEP (Z-Gly-Pro-AMC) cleavage; type: biochemical; details: 0-1000 nM antibody, 20-100 μM Z-Gly-Pro-AMC; Lineweaver-Burk
T1 construct: purchased Sino Biologicals 10464-H07H
T1 sequence (Q12884 26-760 limits assumed): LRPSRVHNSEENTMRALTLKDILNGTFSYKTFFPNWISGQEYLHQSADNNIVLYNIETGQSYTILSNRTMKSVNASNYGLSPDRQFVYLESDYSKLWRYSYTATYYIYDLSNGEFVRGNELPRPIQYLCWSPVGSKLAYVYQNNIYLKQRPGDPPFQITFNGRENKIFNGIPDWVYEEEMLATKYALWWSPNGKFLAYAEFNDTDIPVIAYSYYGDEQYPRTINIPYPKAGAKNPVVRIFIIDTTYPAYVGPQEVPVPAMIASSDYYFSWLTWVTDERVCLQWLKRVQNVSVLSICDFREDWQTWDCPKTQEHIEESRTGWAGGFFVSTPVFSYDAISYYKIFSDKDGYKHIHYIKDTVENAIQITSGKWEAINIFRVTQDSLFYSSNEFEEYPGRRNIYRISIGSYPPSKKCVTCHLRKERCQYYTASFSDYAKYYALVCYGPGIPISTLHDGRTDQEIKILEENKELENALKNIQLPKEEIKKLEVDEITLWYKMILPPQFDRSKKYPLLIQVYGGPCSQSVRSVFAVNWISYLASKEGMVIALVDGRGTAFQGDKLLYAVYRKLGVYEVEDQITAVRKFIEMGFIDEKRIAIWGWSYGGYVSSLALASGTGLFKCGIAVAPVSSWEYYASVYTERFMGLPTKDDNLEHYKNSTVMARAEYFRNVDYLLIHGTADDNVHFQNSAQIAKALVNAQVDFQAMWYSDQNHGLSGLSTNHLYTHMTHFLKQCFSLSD
Protocol: A black flat bottom standard 96-well ELISA plate was blocked for 1 hr at 37° C. using sterile blocking buffer: 5% bovine serum albumin (BSA) in phosphate buffered saline (PBS). 10 μL of recombinant human FAP solution: 0.4 nM recombinant human FAP (Sino Biologicals, 10464-H07H), in 225 mM Sodium phosphate buffer, pH 7.4) was added to each well. Then, 80 μL of NI-206.82C2 at the indicated concentrations in PBS were added to the wells incubated for 1 hr at 37° C. Then, 10 μL of fluorogenic substrate solution (Z-Gly-Pro-AMC in 40% methanol and 60% 25 […]) was added to each well. The fluorescence intensity was measured at 360 nm excitation and 460 nm emission every 3 min over a total reading time of 2 hr.

B1: NI-206.82C2: human-derived recombinant anti-FAP antibody; VH SEQ ID NO: 2 or 4 (PIMC), VL SEQ ID NO: 6 (antibody, V domains shown)
VH: QVQLQQSGPGLVKPSQTLSLTCAISGDSVSSNSVTWNWIRQSPSRGLEWLGRTYYRSKWYNDYAVSVKGRITINPDTSKNQFYLQLKSVTPEDAAVYYCARDSSILYGDYWGQGTLVTVSS
VL: QAVLTQPSSLSASPGASASLTCTLPSGINVGTYRIFWFQQKPGSPPQYLLSYKSDSDNHQGSGVPSRFSGSKDASANAGILLISGLQSEDEADYYCMIWHSSAWVFGGGTKLTVL
- binding in the syngeneic MOPC315.BM mouse model [1]: binds to multiple myeloma cells and tumor stroma
- occlusion time ([2]; 20 mg/kg i.v. versus vehicle control, n=4): significantly prolonged
- median time to occlusion ([2]; 2, 7 and 20 mg/kg versus PBS and 43A11): dose-dependent increase
- Log-rank hazard ratio of arterial occlusion ([2]; versus 43A11 isotype control): 0.04
- dose at which significant increase in median time to occlusion starts ([2]; versus PBS and 43A11 at 20 mg/kg): 2 mg/kg
- binding to human invasive ductal and invasive lobular carcinoma sections [3]: specifically binds
- type of inhibition of FAP-mediated PEP cleavage (recombinant human FAP): non-competitive inhibitor
